Source: US10428140B2, “Anti-EphA4 antibody” (EISAI R&D MANAGEMENT CO., LTD., priority 2015, dated 2019)
Where a chain is given by its changes, count along the chain named.

T1: human EphB3 (Homo sapiens, UniProt P54753)
T1 construct: a protein of the extracellular region of each human Eph receptor fused with the SEAP protein and the His tag; made in house; host or cells: Expi293F cells
T1 sequence (P54753 34-559 limits assumed): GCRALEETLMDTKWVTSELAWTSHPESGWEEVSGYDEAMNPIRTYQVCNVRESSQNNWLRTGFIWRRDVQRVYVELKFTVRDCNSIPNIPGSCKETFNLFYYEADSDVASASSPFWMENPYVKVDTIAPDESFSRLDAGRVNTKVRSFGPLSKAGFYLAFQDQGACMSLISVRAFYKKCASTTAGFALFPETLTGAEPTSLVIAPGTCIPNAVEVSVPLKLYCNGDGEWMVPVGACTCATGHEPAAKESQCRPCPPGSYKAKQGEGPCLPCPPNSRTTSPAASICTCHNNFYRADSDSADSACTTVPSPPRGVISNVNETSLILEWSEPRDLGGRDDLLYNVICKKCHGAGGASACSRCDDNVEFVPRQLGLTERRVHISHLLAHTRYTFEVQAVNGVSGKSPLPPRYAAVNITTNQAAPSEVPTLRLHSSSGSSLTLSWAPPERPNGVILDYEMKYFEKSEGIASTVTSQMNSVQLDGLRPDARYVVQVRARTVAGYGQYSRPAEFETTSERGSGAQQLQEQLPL

T2: human EphB6 (Homo sapiens, UniProt O15197)
T2 construct: a protein of the extracellular region of each human Eph receptor fused with the SEAP protein and the His tag; made in house; host or cells: Expi293F cells
T2 sequence (O15197 32-594 limits assumed): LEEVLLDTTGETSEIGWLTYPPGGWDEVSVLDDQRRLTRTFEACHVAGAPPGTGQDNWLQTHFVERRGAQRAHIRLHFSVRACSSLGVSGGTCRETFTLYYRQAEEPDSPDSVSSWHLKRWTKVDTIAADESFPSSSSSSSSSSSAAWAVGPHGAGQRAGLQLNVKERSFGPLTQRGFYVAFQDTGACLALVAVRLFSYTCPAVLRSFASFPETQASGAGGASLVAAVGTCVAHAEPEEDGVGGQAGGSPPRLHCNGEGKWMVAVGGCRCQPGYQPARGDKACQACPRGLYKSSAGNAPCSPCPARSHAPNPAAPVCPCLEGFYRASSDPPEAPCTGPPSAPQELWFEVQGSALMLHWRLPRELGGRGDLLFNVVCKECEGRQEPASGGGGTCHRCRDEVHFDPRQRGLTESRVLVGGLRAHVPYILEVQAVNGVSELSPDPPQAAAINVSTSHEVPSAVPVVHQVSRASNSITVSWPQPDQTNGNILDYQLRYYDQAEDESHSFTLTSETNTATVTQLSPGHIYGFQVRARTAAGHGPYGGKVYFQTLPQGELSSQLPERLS

B1: 142 (antibody, V domains shown)
VH: QVQLVQSGSELKKPGASVKVSCKASGYTFTDYSMHWVRQAPGQGLKWMGWINTETGEPTYADDFKGRFVFSLDTSVSTAYLQISSLKAEDTAVYYCARIPLYYYGSRYWYFDVWGQGTTVTVSS
VL: DIQMTQSPSSLSASVGDRVTITCRASENIYRNLAWYQQKPGKAPKLLVYAATNLADGVPSRFSGSGSGTDYTLTISSLQPEDFATYYCQHFWGTPWTFGQGTKVEIK
modifications: synthetic humanized antibody heavy chain variable region sequence; synthetic humanized antibody light chain variable region sequence
B2: 145 (antibody, V domains shown)
VH: B1 VH
VL: B1 VL with V48L, P80S
modifications: synthetic humanized antibody heavy chain variable region sequence; synthetic humanized antibody light chain variable region sequence
B3: 154 (antibody, V domains shown)
VH: B1 VH with K46E
VL: B1 VL with V48L, P80S
modifications: synthetic humanized antibody heavy chain variable region sequence; synthetic humanized antibody light chain variable region sequence
B4: 143 (antibody, V domains shown)
VH: B1 VH with V2I
VL: B1 VL
modifications: synthetic humanized antibody heavy chain variable region sequence; synthetic humanized antibody light chain variable region sequence
B5: 152 (antibody, V domains shown)
VH: B1 VH with K46E, D62Q, D63G, K65T
VL: B1 VL with V48L, P80S
modifications: synthetic humanized antibody heavy chain variable region sequence; synthetic humanized antibody light chain variable region sequence
B6: 151 (antibody, V domains shown)
VH: B1 VH with V2I, D62Q, D63G, K65T
VL: B1 VL with V48L, P80S
modifications: synthetic humanized antibody heavy chain variable region sequence; synthetic humanized antibody light chain variable region sequence
B7: 153 (antibody, V domains shown)
VH: B1 VH with D62Q, D63G, K65T
VL: B1 VL with V48L, P80S
modifications: synthetic humanized antibody heavy chain variable region sequence; synthetic humanized antibody light chain variable region sequence

Columns and labels:
[1] = biological target: T1, human EphB3; test: Selectivity ELISA of humanized antibodies for human Eph receptor; format: binding; conditions: coated protein 1 nM
Outline: (§1)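 Extracellular domains of human Eph receptors fused to SEAP-His were expressed in Expi293F cells for 5 days and captured from supernatant (1 nM final) on anti-His-coated plates. Humanized anti-EphA4 antibodies were incubated 1 h at room temperature, then HRP anti-IgG secondary, TMB substrate, and absorbance at 450 nm.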

[2] = biological target: T2, human EphB6; test: as above; format: binding; conditions: coated protein 1 nM
Outline: as §1

| Molecule | hEphB3-SEAP-: absorbance at 450 nm, percentage with respect to hEphA4-SEAP-His as 100% [1] [%] | hEphB6-SEAP-: absorbance at 450 nm, percentage with respect to hEphA4-SEAP-His as 100% [2] [%] |
| --- | --- | --- |
| B1 | 5.6 | 5.6 |
| B2 | 6.7 | 6.6 |
| B3 | 6.2 | 6.4 |
| B4 | 5.9 | 5.6 |
| B5 | 6.0 | 5.9 |
| B6 | 7.3 | 7.1 |
| B7 | 5.9 | 6.2 |
